Test results as given in publication PMC10808355.

How the values were obtained:
[1] = target: Chaetomium thermophilum 80S ribosome (Ct80S) (C. thermophilum (endogenous in C. thermophilum)); test: cryo-EM structure; 400 nM C. thermophilum 80S ribosomes (with random nascent chains) mixed with full-length CtMAP2 (66 µM final), 30 min at RT, then vitrified
[2] = target: Chaetomium thermophilum 80S ribosome (Ct80S) (C. thermophilum (endogenous in C. thermophilum)); test: cryo-EM structure; 400 nM C. thermophilum 80S ribosomes mixed with CtMAP2∆N (66 µM final), 30 min at RT, then vitrified; particles separated by translocation state (rotated, non-rotated)
[3] = target: Human 80S ribosome, non-translating (Hs80S) (human (endogenous in HeLa)) (UniProt P62750); test: cryo-EM structure; 200 nM non-translating H. sapiens 80S ribosomes mixed with HsMAP2 (59 µM final), 30 min at RT, then vitrified

Substance: Chaetomium thermophilum methionine aminopeptidase 2, full length (CtMAP2) (enzyme)
- percent of purified ribosomes that accommodate MAP2 [1]: 100%

Substance: CtMAP2(∆N1-73), autoproteolysis product of C. thermophilum MAP2 without the N-terminal extension (domain or fragment)
- fold of the percentage in the A-site, against the full-length CtMAP2 dataset [2]: 4 fold
- percent of 80S ribosomes with CtMAP2∆N at the PTE [2]: 70%

Substance: Human methionine aminopeptidase 2 (HsMAP2) (from UniProt P50579 1-478) (enzyme)
- percent of purified ribosomes that accommodate MAP2 [3]: 100%
